The values below come from the supplement of paper PMC9112550, “Optimization of the antimicrobial peptide Bac7 by deep mutational scanning” (BMC Biology, 2022).

The subject of this data set is Escherichia coli TOP10. In words: shrunken log2 fold change of peptide-encoding DNA abundance (4.5 h post-induction vs induction); higher = less antimicrobial activity (less host growth inhibition). The following applies: time post-induction: 4.5 h; library: site-saturation at positions 5, 18, 19, 20.
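Further: peptides expressed intracellularly from a pBAD plasmid library in pooled LB shake-flask culture, induced with 0.3% L-arabinose, DNA abundance read by NGS, three biological replicates, DESeq2 with apeglm shrinkage.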

As to RRIRERPPRLPRPRPRPFVKPRP, the “shrunken log2 fold change” value is -0.0102.
Consider RRIRPRPPRLPRPRPRPTVEPRP, for which the “shrunken log2 fold change” value was -0.104.
Consider RRIRTRPPRLPRPRPRPCNIPRP, for which the “shrunken log2 fold change” value came to 0.048.
In the case of RRIRERPPRLPRPRPRPAGPPRP, the “shrunken log2 fold change” value is -0.0342.
For RRIRLRPPRLPRPRPRPYVPPRP, the “shrunken log2 fold change” value is -0.383.
As to RRIRKRPPRLPRPRPRPPHGPRP, the “shrunken log2 fold change” value is 0.634.
As for RRIRCRPPRLPRPRPRPELCPRP, the “shrunken log2 fold change” value is 0.488.
In the case of RRIRMRPPRLPRPRPRPLEDPRP, the “shrunken log2 fold change” value came to 2.77.
Take RRIRWRPPRLPRPRPRPMAVPRP: the “shrunken log2 fold change” value stood at 0.173.
Take RRIRQRPPRLPRPRPRPTVWPRP: the “shrunken log2 fold change” value turned out to be 0.339.
Take RRIRPRPPRLPRPRPRPMKQPRP: the “shrunken log2 fold change” value is 0.036.
As for RRIRERPPRLPRPRPRPKMNPRP, the “shrunken log2 fold change” value was -0.642.
Consider RRIRMRPPRLPRPRPRPKFYPRP, for which the “shrunken log2 fold change” value was determined as 0.0127.
Consider RRIRWRPPRLPRPRPRPEHYPRP, for which the “shrunken log2 fold change” value is -1.14.
For RRIRPRPPRLPRPRPRPLTSPRP, the “shrunken log2 fold change” value was -0.125.
Regarding RRIRPRPPRLPRPRPRPWFNPRP, the “shrunken log2 fold change” value is -0.541.
As to RRIRVRPPRLPRPRPRPNVYPRP, the “shrunken log2 fold change” value was -0.787.
For RRIRLRPPRLPRPRPRPGLQPRP, the “shrunken log2 fold change” value is -0.166.
Turning to RRIRARPPRLPRPRPRPAHVPRP, the “shrunken log2 fold change” value is 0.0804.
On to RRIRGRPPRLPRPRPRPCRTPRP, for which the “shrunken log2 fold change” value was found to be 0.225.
To RRIRLRPPRLPRPRPRPNPHPRP belongs -0.07; to RRIRMRPPRLPRPRPRPAQRPRP, 0.987; to RRIRPRPPRLPRPRPRPVLGPRP, 0.122.
Next, RRIRLRPPRLPRPRPRPPERPRP: 0.566.
Consider RRIRKRPPRLPRPRPRPGEEPRP, for which the “shrunken log2 fold change” value was determined as 0.108.
To RRIRQRPPRLPRPRPRPEVHPRP belongs 0.038.
As for RRIRNRPPRLPRPRPRPHHPPRP, the “shrunken log2 fold change” value is -0.398.
In the case of RRIRGRPPRLPRPRPRPVSGPRP, the “shrunken log2 fold change” value stood at 0.731.
Next, RRIRQRPPRLPRPRPRPDTWPRP: -0.197.
Regarding RRIRQRPPRLPRPRPRPSKLPRP, the “shrunken log2 fold change” value was -0.401.
With RRIRPRPPRLPRPRPRPTEFPRP, the “shrunken log2 fold change” value is -0.268.
In the case of RRIRPRPPRLPRPRPRPYHYPRP, the “shrunken log2 fold change” value is -0.84.
Take RRIRERPPRLPRPRPRPWGNPRP: the “shrunken log2 fold change” value was -0.377.
On to RRIRRRPPRLPRPRPRPDACPRP, for which the “shrunken log2 fold change” value is 0.00716.
Next, RRIRCRPPRLPRPRPRPAPVPRP: 0.56; RRIRIRPPRLPRPRPRPQDPPRP: -0.235; RRIRTRPPRLPRPRPRPGIKPRP: -0.162.
For RRIRARPPRLPRPRPRPYCDPRP, the “shrunken log2 fold change” value was -0.425.
As to RRIRWRPPRLPRPRPRPVFSPRP, the “shrunken log2 fold change” value is -0.0517.
As to RRIRPRPPRLPRPRPRPDQGPRP, the “shrunken log2 fold change” value is -0.0018.
For RRIRQRPPRLPRPRPRPALVPRP, the “shrunken log2 fold change” value is 0.297.
For the sequence RRIRKRPPRLPRPRPRPTWLPRP, the “shrunken log2 fold change” value turned out to be 0.638.
As for RRIRYRPPRLPRPRPRPTDLPRP, the “shrunken log2 fold change” value was -0.396.
Next, RRIRARPPRLPRPRPRPRQCPRP: 0.353; RRIRCRPPRLPRPRPRPDPWPRP: -0.0438; RRIRRRPPRLPRPRPRPFDHPRP: -0.242.
On to RRIRSRPPRLPRPRPRPAVEPRP, for which the “shrunken log2 fold change” value was 0.39.
Take RRIRNRPPRLPRPRPRPKVWPRP: the “shrunken log2 fold change” value amounted to 0.68.
Consider RRIRFRPPRLPRPRPRPYGQPRP, for which the “shrunken log2 fold change” value was -0.101.
Regarding RRIRIRPPRLPRPRPRPWDKPRP, the “shrunken log2 fold change” value is -0.0749.
For RRIRVRPPRLPRPRPRPHPSPRP, the “shrunken log2 fold change” value was found to be 0.168.
As for RRIRGRPPRLPRPRPRPPPGPRP, the “shrunken log2 fold change” value is 1.36.
With RRIRNRPPRLPRPRPRPSFKPRP, the “shrunken log2 fold change” value is -0.25.
Regarding RRIRWRPPRLPRPRPRPLGQPRP, the “shrunken log2 fold change” value turned out to be 0.0349.
As for RRIRHRPPRLPRPRPRPEFGPRP, the “shrunken log2 fold change” value was 0.308.
In the case of RRIRIRPPRLPRPRPRPLIHPRP, the “shrunken log2 fold change” value is -0.556.
As for RRIRRRPPRLPRPRPRPKCVPRP, the “shrunken log2 fold change” value was -0.29.
As for RRIRCRPPRLPRPRPRPHALPRP, the “shrunken log2 fold change” value was -0.0688.
Regarding RRIRNRPPRLPRPRPRPHWHPRP, the “shrunken log2 fold change” value was -0.65.
Consider RRIRIRPPRLPRPRPRPNWGPRP, for which the “shrunken log2 fold change” value is -0.205.
Consider RRIRCRPPRLPRPRPRPQIWPRP, for which the “shrunken log2 fold change” value was -0.226.
Take RRIRARPPRLPRPRPRPCYRPRP: the “shrunken log2 fold change” value was -0.141.
Next, RRIRIRPPRLPRPRPRPRHFPRP: -0.00457; RRIRTRPPRLPRPRPRPCHKPRP: 0.014.
Regarding RRIRDRPPRLPRPRPRPWDCPRP, the “shrunken log2 fold change” value was -0.103.
As for RRIRTRPPRLPRPRPRPRNYPRP, the “shrunken log2 fold change” value was -0.0303.
With RRIRARPPRLPRPRPRPAQDPRP, the “shrunken log2 fold change” value was found to be 0.232.
Turning to RRIRCRPPRLPRPRPRPPQNPRP, the “shrunken log2 fold change” value came to 0.801.
RRIRWRPPRLPRPRPRPYNAPRP: the “shrunken log2 fold change” value was -0.307.
Consider RRIRLRPPRLPRPRPRPHFIPRP, for which the “shrunken log2 fold change” value was -0.249.
For the sequence RRIRSRPPRLPRPRPRPQFEPRP, the “shrunken log2 fold change” value stood at 0.189.
RRIRGRPPRLPRPRPRPYLTPRP: the “shrunken log2 fold change” value is -0.0518.
For RRIRLRPPRLPRPRPRPPWRPRP, the “shrunken log2 fold change” value is 0.445.
As to RRIRFRPPRLPRPRPRPVDKPRP, the “shrunken log2 fold change” value is -0.022.
RRIRPRPPRLPRPRPRPKDCPRP: the “shrunken log2 fold change” value was 0.107.
As to RRIRLRPPRLPRPRPRPRSWPRP, the “shrunken log2 fold change” value was 0.297.
For RRIRKRPPRLPRPRPRPDQMPRP, the “shrunken log2 fold change” value is -0.0646.
As for RRIRCRPPRLPRPRPRPKPQPRP, the “shrunken log2 fold change” value stood at 0.324.
Next, RRIRARPPRLPRPRPRPMTPPRP: 0.913; RRIRFRPPRLPRPRPRPFTCPRP: -0.271; RRIRSRPPRLPRPRPRPSKSPRP: -0.361.
As to RRIRPRPPRLPRPRPRPYTRPRP, the “shrunken log2 fold change” value is -0.853.
With RRIRQRPPRLPRPRPRPPFCPRP, the “shrunken log2 fold change” value is -0.284.
To RRIRLRPPRLPRPRPRPEQYPRP belongs -0.122.
In the case of RRIRSRPPRLPRPRPRPRYGPRP, the “shrunken log2 fold change” value was found to be 0.0513.
To RRIRWRPPRLPRPRPRPQSWPRP belongs 0.302.
Turning to RRIRNRPPRLPRPRPRPVAEPRP, the “shrunken log2 fold change” value was 0.363.
With RRIRNRPPRLPRPRPRPVMQPRP, the “shrunken log2 fold change” value was -0.187.
Take RRIRDRPPRLPRPRPRPCHTPRP: the “shrunken log2 fold change” value is -0.234.
Consider RRIRSRPPRLPRPRPRPFTAPRP, for which the “shrunken log2 fold change” value is -0.492.
On to RRIRERPPRLPRPRPRPEMCPRP, for which the “shrunken log2 fold change” value is -0.0143.
For the sequence RRIRMRPPRLPRPRPRPWRNPRP, the “shrunken log2 fold change” value was -0.00207.
To RRIRGRPPRLPRPRPRPSHWPRP belongs 0.157; to RRIRMRPPRLPRPRPRPVNFPRP, -0.114.
For RRIRWRPPRLPRPRPRPSRQPRP, the “shrunken log2 fold change” value is 0.399.
Next, RRIRSRPPRLPRPRPRPTAQPRP: 0.405.
Regarding RRIRGRPPRLPRPRPRPLGRPRP, the “shrunken log2 fold change” value was determined as 0.599.
On to RRIRPRPPRLPRPRPRPPHVPRP, for which the “shrunken log2 fold change” value stood at 0.782.
Consider RRIRQRPPRLPRPRPRPRLPPRP, for which the “shrunken log2 fold change” value stood at 0.467.
On to RRIRYRPPRLPRPRPRPLAFPRP, for which the “shrunken log2 fold change” value is -0.827.
Take RRIRTRPPRLPRPRPRPMDTPRP: the “shrunken log2 fold change” value was determined as 0.0257.
Take RRIRWRPPRLPRPRPRPSQFPRP: the “shrunken log2 fold change” value was -0.196.
RRIRDRPPRLPRPRPRPFICPRP: the “shrunken log2 fold change” value is -0.0606.
As for RRIRWRPPRLPRPRPRPDNFPRP, the “shrunken log2 fold change” value is -0.0334.
Consider RRIRWRPPRLPRPRPRPGESPRP, for which the “shrunken log2 fold change” value stood at 0.159.
As to RRIRIRPPRLPRPRPRPVFCPRP, the “shrunken log2 fold change” value was -0.321.
For RRIRMRPPRLPRPRPRPNTGPRP, the “shrunken log2 fold change” value is 0.151.
RRIRSRPPRLPRPRPRPPQCPRP: the “shrunken log2 fold change” value came to 0.115.
As to RRIRFRPPRLPRPRPRPSFCPRP, the “shrunken log2 fold change” value was -0.373.
In the case of RRIRYRPPRLPRPRPRPPDSPRP, the “shrunken log2 fold change” value was -0.0664.
Next, RRIRRRPPRLPRPRPRPGIAPRP: 0.185.
As to RRIRCRPPRLPRPRPRPYVVPRP, the “shrunken log2 fold change” value was 0.0333.
Consider RRIRDRPPRLPRPRPRPNEIPRP, for which the “shrunken log2 fold change” value is -0.0208.
For the sequence RRIRTRPPRLPRPRPRPCAYPRP, the “shrunken log2 fold change” value is -0.164.
As for RRIRHRPPRLPRPRPRPTPTPRP, the “shrunken log2 fold change” value was 0.138.
As for RRIRIRPPRLPRPRPRPGIRPRP, the “shrunken log2 fold change” value was -0.0416.
Regarding RRIRMRPPRLPRPRPRPNIWPRP, the “shrunken log2 fold change” value worked out at 0.785.
As for RRIRYRPPRLPRPRPRPLWVPRP, the “shrunken log2 fold change” value was -0.0829.
Take RRIRFRPPRLPRPRPRPHMLPRP: the “shrunken log2 fold change” value came to 0.798.
To RRIRGRPPRLPRPRPRPRANPRP belongs 0.816; to RRIRNRPPRLPRPRPRPDRSPRP, -0.043; to RRIRKRPPRLPRPRPRPSCSPRP, -0.0597.
For the sequence RRIRERPPRLPRPRPRPYDCPRP, the “shrunken log2 fold change” value is -0.0948.
RRIRTRPPRLPRPRPRPMVPPRP: the “shrunken log2 fold change” value is -0.0651.
In the case of RRIRARPPRLPRPRPRPAFFPRP, the “shrunken log2 fold change” value is 0.479.
